Source: publication PMC546169
Read-outs that look alike come from different tables or passages of the source.

T1: Sac7d V26A/M29A (Sulfolobus acidocaldarius, UniProt P13123 1-66, V26A;M29A)
T1 sequence: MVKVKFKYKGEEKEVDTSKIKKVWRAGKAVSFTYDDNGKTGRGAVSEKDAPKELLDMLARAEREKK

T2: Sac7d M29F (Sulfolobus acidocaldarius, UniProt P13123 1-66, M29F)
T2 sequence: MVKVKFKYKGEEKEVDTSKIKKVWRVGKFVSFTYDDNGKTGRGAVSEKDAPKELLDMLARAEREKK

T3: Sac7d M29A (Sulfolobus acidocaldarius, UniProt P13123 1-66, M29A)
T3 sequence: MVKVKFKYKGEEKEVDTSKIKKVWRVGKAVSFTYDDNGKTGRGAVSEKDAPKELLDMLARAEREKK

T4: Sac7d V26A (Sulfolobus acidocaldarius, UniProt P13123 1-66, V26A)
T4 sequence: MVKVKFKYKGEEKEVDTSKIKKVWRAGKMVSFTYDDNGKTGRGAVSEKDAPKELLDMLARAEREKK

T5: Sac7d V26F/M29F (Sulfolobus acidocaldarius, UniProt P13123 1-66, V26F;M29F)
T5 sequence: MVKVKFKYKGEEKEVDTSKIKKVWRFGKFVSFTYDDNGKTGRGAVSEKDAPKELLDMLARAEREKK


Key:
Experiment in all cases: X-ray crystallography
Sac7d V26A/M29A [1] = target: T1, Sac7d V26A/M29A
Sac7d M29F [2] = target: T2, Sac7d M29F
Sac7d M29A = target: T3, Sac7d M29A
Sac7d V26A = target: T4, Sac7d V26A
Sac7d V26F/M29F = target: T5, Sac7d V26F/M29F
Sac7d V26A/M29A [3] = target: T1, Sac7d V26A/M29A; remark: listed apart in the source
Sac7d M29F [4] = target: T2, Sac7d M29F; remark: listed apart in the source
Sac7d V26A/M29A [5] = target: T1, Sac7d V26A/M29A; remark: listed apart in the source

Binder	binding result (Sac7d M29F [2])	binding result (Sac7d M29A)	binding result (Sac7d V26A)	also measured
GCGATiCGC duplex (dsDNA, DNA with iodo derivative at position 5 (printed Ti; presumably iodo-dU)) DNA 1: GCGAUCGC DNA 2: GCGAUCGC				binding result (Sac7d V26A/M29A [1]): binds
GTAATTAC duplex (dsDNA) DNA 1: GTAATTAC DNA 2: GTAATTAC	binds	binds	binds	
GCGATCGC duplex (dsDNA) DNA 1: GCGATCGC DNA 2: GCGATCGC		binds	binds	binding result (Sac7d V26F/M29F): binds; binding result (Sac7d V26A/M29A [3]): binds; binding result (Sac7d M29F [4]): binds
GCGAUbrCGC duplex (dsDNA, DNA with bromo-dU at position 5 of each strand) DNA 1: GCGAUCGC DNA 2: GCGAUCGC	binds			binding result (Sac7d V26A/M29A [5]): binds
